# Columns and labels:
# murine platelets = experiment: Ex vivo aggregation of murine platelets; assay type: in vivo, C57BL/6J mice; conditions: PRP 1 hour after soluble CD39 4 mg/kg or aspirin 5 mg/kg
# Experimental: C57BL/6J mice (6-8 wk) were obtained from Jackson Laboratories (Bar Harbor, Me.). […] 80 μL of 3.8% trisodium citrate was added to each mL of blood. […] The PRP contained 400-700×10^3 platelets per μL. All experiments were completed within 2 hours of blood collection. PRP (200 μL) was preincubated, for 3 min. at 37° C., with 100 μL Tris-buffered saline buffer ([…], 5 mM glucose, pH 7.4) in an aggregometer cuvette (Lumiaggregometer; Chrono-Log, Havertown, Pa.), and the platelet agonists ADP, collagen, or sodium arachidonate were added at the final concentrations indicated.
# [1] = Murine model of stroke (middle cerebral artery occlusion); assay type: in vivo, mice
# Experimental: Anesthetized mice were maintained at 37±2° C. during and for 90 min following surgery. A midline neck incision was made and the right carotid artery exposed. Middle cerebral artery occlusion was accomplished by advancing a 13-mm heat-blunt tipped 6-0 nylon suture via an arteriotomy in the external carotid stump. The external carotid artery was cauterized to secure hemostasis, and arterial flow reestablished. […] Surgical staples were used for wound closure. […]
# platelets [2] = experiment: Platelet aggregation in human platelet-rich plasma; assay type: cell-based
# Experimental: After obtaining informed consent from volunteers, blood was collected via plastic tubing using acid citrate-dextrose (38 mM citric acid; 75 mM sodium citrate; 135 mM glucose) as anticoagulant. Where indicated, volunteers had ingested 650 mg acetylsalicylic acid (ASA) 18 h prior to blood donation. […] The stock suspension of PRP was maintained at room temperature under 5% CO2-air. […] Total volumes were adjusted to 300 μl with TSG buffer (Marcus et al., J. Clin. Invest. 88:1690, 1991; Marcus et al., J. Clin. Invest. 99:1351, 1997). […] A mock-treated sample was also prepared in which the FSBA solution was replaced with water. After incubating at 37° for 90 min., the samples were centrifuged in a Centricon-10 filter unit (Amicon Corp.) for 1 hour at 5,500 rpm and buffer exchanged into PBS to remove unreacted material.
# [3] = Phosphate release assay for ATPase activity; assay type: biochemical; conditions: for ATPase activity, CPM × 10^3 (net counts): Table 3, 5-day 1× COS-1 sups; for ATPase activity, CPM Release × 10^3 (net counts): unconcentrated COS-1 CM
# Experimental: This example describes an ATPase assay that may be used to track enzyme activity. Samples (approximately 100 μl of either concentrated CM or purified polypeptide) are combined with 20 μl of 10× assay buffer (200 mM HEPES, 1.2 M NaCl, 50 mM KCl, 15 mM CaCl2, 15 mM MgCl2 and 3 mM ATP) and sterile water is added to a final volume of 200 μl. Radiolabeled ATP (0.8 μCi γ [^32P] ATP; Amersham, Arlington Heights, Ill.) is added and the mixture incubated for 20 minutes at 37° C. […] After centrifugation (14K rpm for 10 minutes), the supernatant is assayed for free ^32P using a scintillation counter. Data are expressed as raw counts or net counts, or as picomoles of ATP degraded per minute. […] The transfections were repeated and the CM (10, 20 and 30 μL, unconcentrated) was assayed essentially as described in Example 7. […] ATPase levels in CM from COS-1 cells transfected with pIL2LFlagSolCD39 increased with time in culture over at least 4 days post-transfection. To determine whether activity was affected by removal of the N-terminal FLAG® tag, COS-1 cells were transfected with pIL2LFlagSolCD39 and pIL2LSolCD39 and supernatants (sups) were harvested after 5 days. Samples of 10, 20 and 30 μL of 1× sups were assayed for ATPase activity as described in Example 7. […] The expression of Trim1 and Trim2 constructs was analyzed in COS-1 cells cultured in 10 cm plates. After 5 days of incubation, 1× supernatants were examined via ELISA (using anti-CD39) and the phosphate-release assay described in Example 7. […] Expression levels, however, appeared to be reduced 3-4 fold.
# [4] = Phosphate release assay for ATPase activity; assay type: biochemical; conditions: 100 μL of 10-fold concentrated CM from COS-1 transfectants; 10× buffer with 30 mM cold ATP
# [5] = Enzymatic (ATPase and ADPase) activity of site-directed mutants; assay type: biochemical
# Experimental: Mutants were assayed for enzymatic (ATPase and ADPase) and platelet inhibitory (dose-dependent inhibition of platelet aggregation) activities. For one series of mutants, residues within the conserved apyrase regions were replaced with alanine.
# platelets [6] = experiment: Ex vivo additive inhibition of platelet aggregation in patient platelet rich plasma; assay type: cell-based, human; conditions: patient PRP, no SolCD39
molecule,measurement,setting,value
"CC(=O)Oc1ccccc1C(=O)O [Aspirin, acetylsalicylic acid, reference compound]","ex vivo platelet aggregation, collagen",murine platelets; 2.5 μg/ml collagen,strongly aggregated
same,"ex vivo platelet aggregation, ADP",murine platelets; 10 μM ADP,strongly aggregated
same,"ex vivo platelet aggregation, arachidonate",murine platelets; 0.1 mM sodium arachidonate,blocked
same,postischemic cerebral perfusion / blood flow,[1]; 24 hours after stroke induction,no improvement
same,intracerebral hemorrhage,"[1]; following stroke, spectrophotometric",increased
same,cerebral infarct volume,"[1]; preoperative administration, aspirin 5 mg/kg",not statistically significant
"COc1ccc2c(c1)c(CC(=O)O)c(C)n2C(=O)c1ccc(Cl)cc1 [indomethacin, reference compound]",platelet responsiveness to 5 μM ADP,"platelets [2]; PRP with or without 10 μM indomethacin, CM containing solCD39 from COS-1 and CHO cells",partial reversal
pIL2LTrim1: huIL2 leader joined to solCD39 with an intervening alanine residue (SEQ ID NO:27) (protein) MALWIDRMQLLSCIALSLALVTNSATQNKALPENVKYGIVLDAGSSHTSLYIYKWPAEKENDTGVVHQVEECRVKGPGISKFVQKVNEIGIYLTDCMERAREVIPRSQHQETPVYLGATAGMRLLRMESEELADRVLDVVERSLSNYPFDFQGARIITGQEEGAYGWITINYLLGKFSQKTRWFSIVPYETNNQETFGALDLGGASTQVTFVPQNQTIESPDNALQFRLYGKDYNVYTHSFLCYGKDQALWQKLAKDIQVASNEILRDPCFHPGYKKVVNVSDLYKTPCTKRFEMTLPFQQFEIQGIGNYQQCHQSILELFNTSYCPYSQCAFNGIFLPPLQGDFGAFSAFYFVMKFLNLTSEKVSQEKVTEMMKKFCAQPWEEIKTSYAGVKEKYLSEYCFSGTYILSLLLQGYHFTADSWEHIHFIGKIQGSDAGWTLGYMLNLTNMIPAEQPLSTPLSHST,Activity (pmol ATP/min/μg) × 10^3,"[3]; specific activity in COS-1 CM, concentration by ELISA",8.38 (pmol ATP/min/μg) × 10^3
"pIL2LFlagSolCD39: N-terminally FLAG-tagged solCD39 with human proinsulin/IL2 leader and 12 mature IL2 residues (SEQ ID NO:25) (protein, CDS (1)..(1461)) MALWIDRMQLLSCIALSLALVTNSAPTSSSTKKTQLTSSGDYKDDDDKTQNKALPENVKYGIVLDAGSSHTSLYIYKWPAEKENDTGVVHQVEECRVKGPGISKFVQKVNEIGIYLTDCMERAREVIPRSQHQETPVYLGATAGMRLLRMESEELADRVLDVVERSLSNYPFDFQGARIITGQEEGAYGWITINYLLGKFSQKTRWFSIVPYETNNQETFGALDLGGASTQVTFVPQNQTIESPDNALQFRLYGKDYNVYTHSFLCYGKDQALWQKLAKDIQVASNEILRDPCFHPGYKKVVNVSDLYKTPCTKRFEMTLPFQQFEIQGIGNYQQCHQSILELFNTSYCPYSQCAFNGIFLPPLQGDFGAFSAFYFVMKFLNLTSEKVSQEKVTEMMKKFCAQPWEEIKTSYAGVKEKYLSEYCFSGTYILSLLLQGYHFTADSWEHIHFIGKIQGSDAGWTLGYMLNLTNMIPAEQPLSTPLSHST","ATPase activity, CPM Release × 10^3 (raw counts)",[4],99.96 CPM × 10^3
same,"ATPase activity, CPM × 10^3 (net counts)",[3]; 10 μL,23.6 CPM × 10^3
same,"ATPase activity, CPM × 10^3 (net counts)",[3]; 20 μL,40.2 CPM × 10^3
same,"ATPase activity, CPM × 10^3 (net counts)",[3]; 30 μL,54.4 CPM × 10^3
same,"ATPase activity, CPM Release × 10^3 (net counts)",[3]; 10 μL,24.71 CPM × 10^3
same,"ATPase activity, CPM Release × 10^3 (net counts)",[3]; 20 μL,43.92 CPM × 10^3
same,"ATPase activity, CPM Release × 10^3 (net counts)",[3]; 30 μL,56.93 CPM × 10^3
"E174A: CD39 mutant, Glutamate174 replaced with alanine (protein, UniProt P49961 1-510, looked up, variant E174A) Ectonucleoside triphosphate …: MEDTKESNVKTFCSKNILAILGFSSIIAVIALLAVGLTQNKALPENVKYGIVLDAGSSHTSLYIYKWPAEKENDTGVVHQVEECRVKGPGISKFVQKVNEIGIYLTDCMERAREVIPRSQHQETPVYLGATAGMRLLRMESEELADRVLDVVERSLSNYPFDFQGARIITGQEAGAYGWITINYLLGKFSQKTRWFSIVPYETNNQETFGALDLGGASTQVTFVPQNQTIESPDNALQFRLYGKDYNVYTHSFLCYGKDQALWQKLAKDIQVASNEILRDPCFHPGYKKVVNVSDLYKTPCTKRFEMTLPFQQFEIQGIGNYQQCHQSILELFNTSYCPYSQCAFNGIFLPPLQGDFGAFSAFYFVMKFLNLTSEKVSQEKVTEMMKKFCAQPWEEIKTSYAGVKEKYLSEYCFSGTYILSLLLQGYHFTADSWEHIHFIGKIQGSDAGWTLGYMLNLTNMIPAEQPLSTPLSHSTYVFLMVLFSLVLFTVAIIGLLIFHKPSYFWKDMV",effect on platelet responsiveness,platelets [2]; mutant,no effect
same,enzymatic activity of mutant,[5]; alanine replacement in conserved apyrase region,completely devoid
"S218A: CD39 mutant, Serine218 replaced with alanine (protein, UniProt P49961 1-510, looked up, variant S218A) Ectonucleoside triphosphate …: MEDTKESNVKTFCSKNILAILGFSSIIAVIALLAVGLTQNKALPENVKYGIVLDAGSSHTSLYIYKWPAEKENDTGVVHQVEECRVKGPGISKFVQKVNEIGIYLTDCMERAREVIPRSQHQETPVYLGATAGMRLLRMESEELADRVLDVVERSLSNYPFDFQGARIITGQEEGAYGWITINYLLGKFSQKTRWFSIVPYETNNQETFGALDLGGAATQVTFVPQNQTIESPDNALQFRLYGKDYNVYTHSFLCYGKDQALWQKLAKDIQVASNEILRDPCFHPGYKKVVNVSDLYKTPCTKRFEMTLPFQQFEIQGIGNYQQCHQSILELFNTSYCPYSQCAFNGIFLPPLQGDFGAFSAFYFVMKFLNLTSEKVSQEKVTEMMKKFCAQPWEEIKTSYAGVKEKYLSEYCFSGTYILSLLLQGYHFTADSWEHIHFIGKIQGSDAGWTLGYMLNLTNMIPAEQPLSTPLSHSTYVFLMVLFSLVLFTVAIIGLLIFHKPSYFWKDMV",ADPase activity retained,[5]; mutant,less than 10%
"Abciximab: platelet-specific chimeric antibody, glycoprotein IIb/IIIa antagonist, trade name ReoPro (antibody, chains of the INN, looked up, V domains shown, Fab, platelet-specific chimeric antibody, glycoprotein IIb/IIIa antagonist, trade name ReoPro) VH: EVQLQQSGTVLARPGASVKMSCEASGYTFTNYWMHWVKQRPGQGLEWIGAIYPGNSDTSYIQKFKGKAKLTAVTSTTSVYMELSSLTNEDSAVYYCTLYDGYYVFAYWGQGTLVTVSA VL: EIVLTQSPVTLSVTPGDSVSLSCRASRDISNNLHWFQQTSHESPRLLIKYASQSMSGIPSRFSGSGSGTDFTLSINSVETEDFGMYFCQQTNSWPYTFGGGTKLEIK","Platelet aggregation, baseline","platelets [6]; ADP, clopidogrel, ticlopidine, abciximab groups also received aspirin",0 ± 0 arbitrary units
same,"Platelet aggregation, baseline",platelets [6]; Collagen,0 ± 0 arbitrary units
same,"Platelet aggregation, baseline",platelets [6]; TRAP,46 ± 6 arbitrary units
